System: Escherichia coli TOP10
Assay: shrunken log2 fold change of peptide-encoding DNA abundance (4.5 h post-induction vs induction); higher = less antimicrobial activity (less host growth inhibition)
Settings: time post-induction: 4.5 h; library: site-saturation at positions 5, 18, 19, 20
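Also: peptides expressed intracellularly from a pBAD plasmid library in pooled LB shake-flask culture, induced with 0.3% L-arabinose, DNA abundance read by NGS, three biological replicates, DESeq2 with apeglm shrinkage.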

Row | Sequence | shrunken log2 fold change
1 | RRIRVRPPRLPRPRPRPVGIPRP | -0.0251
2 | RRIRRRPPRLPRPRPRPMHKPRP | 0.299
3 | RRIRNRPPRLPRPRPRPASYPRP | -0.148
4 | RRIRARPPRLPRPRPRPCFDPRP | 0.191
5 | RRIRHRPPRLPRPRPRPSWDPRP | -0.205
6 | RRIRHRPPRLPRPRPRPCKQPRP | -0.0199
7 | RRIRMRPPRLPRPRPRPVIKPRP | -0.0254
8 | RRIRERPPRLPRPRPRPTMFPRP | -0.724
9 | RRIRLRPPRLPRPRPRPGIKPRP | -0.874
10 | RRIRLRPPRLPRPRPRPSWQPRP | -0.0855
11 | RRIRYRPPRLPRPRPRPNRLPRP | -0.0455
12 | RRIRCRPPRLPRPRPRPAMAPRP | 0.199
13 | RRIRQRPPRLPRPRPRPYKDPRP | -0.0988
14 | RRIRIRPPRLPRPRPRPFVDPRP | -0.65
15 | RRIRWRPPRLPRPRPRPYFAPRP | -0.216
16 | RRIRARPPRLPRPRPRPDEHPRP | 0.54
17 | RRIRCRPPRLPRPRPRPVNLPRP | 2.47
18 | RRIRGRPPRLPRPRPRPCWKPRP | 0.175
19 | RRIRLRPPRLPRPRPRPLRLPRP | 0.417
20 | RRIRDRPPRLPRPRPRPNDHPRP | -0.53
21 | RRIRKRPPRLPRPRPRPRSRPRP | 0.418
22 | RRIRARPPRLPRPRPRPFTHPRP | -0.113
23 | RRIRMRPPRLPRPRPRPNHHPRP | -0.592
24 | RRIRTRPPRLPRPRPRPNGKPRP | -0.189
25 | RRIRDRPPRLPRPRPRPQNDPRP | -0.215

Row | Sequence | shrunken log2 fold change
26 | RRIRYRPPRLPRPRPRPGQCPRP | 0.00338
27 | RRIRQRPPRLPRPRPRPAYKPRP | -0.534
28 | RRIRARPPRLPRPRPRPAYEPRP | 0.0749
29 | RRIRKRPPRLPRPRPRPFKKPRP | 0.00557
30 | RRIRWRPPRLPRPRPRPNWDPRP | -0.0442
31 | RRIRARPPRLPRPRPRPKLRPRP | 0.178
32 | RRIRPRPPRLPRPRPRPNSNPRP | -0.762
33 | RRIRPRPPRLPRPRPRPISCPRP | -0.0606
34 | RRIRHRPPRLPRPRPRPRSCPRP | -0.0982
35 | RRIRGRPPRLPRPRPRPGLNPRP | 4.08
36 | RRIRFRPPRLPRPRPRPHNRPRP | 0.0584
37 | RRIRCRPPRLPRPRPRPYFYPRP | -1
38 | RRIRARPPRLPRPRPRPTWKPRP | -0.0384
39 | RRIRVRPPRLPRPRPRPPYEPRP | -0.0422
40 | RRIRCRPPRLPRPRPRPSHCPRP | -0.393
41 | RRIRARPPRLPRPRPRPIFFPRP | 0.388
42 | RRIRLRPPRLPRPRPRPRKHPRP | -0.0984
43 | RRIRDRPPRLPRPRPRPPGSPRP | 0.511
44 | RRIRLRPPRLPRPRPRPMCCPRP | -0.394
45 | RRIRQRPPRLPRPRPRPPVGPRP | 0.119
46 | RRIRMRPPRLPRPRPRPQRRPRP | 0.799
47 | RRIRERPPRLPRPRPRPNKHPRP | -0.575
48 | RRIRCRPPRLPRPRPRPSFGPRP | -0.496
49 | RRIRGRPPRLPRPRPRPNFDPRP | 0.491
50 | RRIRKRPPRLPRPRPRPRDYPRP | 0.0161

Row | Sequence | shrunken log2 fold change
51 | RRIRCRPPRLPRPRPRPRYGPRP | -0.499
52 | RRIRDRPPRLPRPRPRPYMIPRP | -0.587
53 | RRIRSRPPRLPRPRPRPVLEPRP | 0.0953
54 | RRIRGRPPRLPRPRPRPFSPPRP | 0.0723
55 | RRIRERPPRLPRPRPRPNPQPRP | 0.0138
56 | RRIRYRPPRLPRPRPRPHCHPRP | -0.735
57 | RRIRLRPPRLPRPRPRPRKTPRP | 0.0104
58 | RRIRIRPPRLPRPRPRPFNAPRP | -0.551
59 | RRIRERPPRLPRPRPRPYWQPRP | -0.172
60 | RRIRIRPPRLPRPRPRPWLTPRP | -0.096
61 | RRIRIRPPRLPRPRPRPCYWPRP | -0.131
62 | RRIRQRPPRLPRPRPRPVEHPRP | -0.00992
63 | RRIRPRPPRLPRPRPRPAREPRP | 0.68
64 | RRIRVRPPRLPRPRPRPVSRPRP | 0.37
65 | RRIRRRPPRLPRPRPRPPSKPRP | 0.172
66 | RRIRKRPPRLPRPRPRPMIMPRP | -0.0451
67 | RRIRERPPRLPRPRPRPCALPRP | -0.319
68 | RRIRIRPPRLPRPRPRPEEPPRP | -0.0444
69 | RRIRTRPPRLPRPRPRPYMKPRP | -0.0199
70 | RRIRERPPRLPRPRPRPYCLPRP | -0.123
71 | RRIRYRPPRLPRPRPRPGVYPRP | -0.0135
72 | RRIRLRPPRLPRPRPRPRLQPRP | 0.15
73 | RRIRSRPPRLPRPRPRPTVYPRP | 0.0113
74 | RRIRMRPPRLPRPRPRPEHIPRP | -0.0225
75 | RRIRTRPPRLPRPRPRPYCHPRP | -0.213

Row | Sequence | shrunken log2 fold change
76 | RRIRQRPPRLPRPRPRPMWIPRP | -0.146
77 | RRIRLRPPRLPRPRPRPAKAPRP | 0.271
78 | RRIRIRPPRLPRPRPRPMVLPRP | -0.071
79 | RRIRTRPPRLPRPRPRPLACPRP | 0.0365
80 | RRIRNRPPRLPRPRPRPCFNPRP | 0.0695
81 | RRIRERPPRLPRPRPRPAQMPRP | 0.392
82 | RRIRNRPPRLPRPRPRPLLMPRP | -0.421
83 | RRIRGRPPRLPRPRPRPFMLPRP | -0.0447
84 | RRIRFRPPRLPRPRPRPMYAPRP | -0.406
85 | RRIRCRPPRLPRPRPRPDNYPRP | -0.921
86 | RRIRVRPPRLPRPRPRPHHTPRP | -0.731
87 | RRIRKRPPRLPRPRPRPLNKPRP | -0.0644
88 | RRIRMRPPRLPRPRPRPTHQPRP | 0.38
89 | RRIRKRPPRLPRPRPRPQEDPRP | 0.0977
90 | RRIRKRPPRLPRPRPRPTFMPRP | 0.189
91 | RRIRFRPPRLPRPRPRPHEDPRP | 0.0846
92 | RRIRLRPPRLPRPRPRPPFGPRP | 0.0044
93 | RRIRLRPPRLPRPRPRPKSSPRP | 0.0397
94 | RRIRMRPPRLPRPRPRPTHCPRP | 0.34
95 | RRIRKRPPRLPRPRPRPWDCPRP | 0.121
96 | RRIRIRPPRLPRPRPRPMQKPRP | 0.0387
97 | RRIRGRPPRLPRPRPRPECPPRP | 0.475
98 | RRIRRRPPRLPRPRPRPHCEPRP | -0.169
99 | RRIRPRPPRLPRPRPRPHIGPRP | 0.0387
100 | RRIRNRPPRLPRPRPRPMNYPRP | -0.00918

Row | Sequence | shrunken log2 fold change
101 | RRIRIRPPRLPRPRPRPSFIPRP | -1.24
102 | RRIRLRPPRLPRPRPRPMGHPRP | -0.0276
103 | RRIRERPPRLPRPRPRPAMKPRP | -0.0226
104 | RRIRHRPPRLPRPRPRPCLRPRP | 0.0119
105 | RRIRIRPPRLPRPRPRPGDIPRP | -0.0899
106 | RRIRQRPPRLPRPRPRPIFIPRP | -0.472
107 | RRIRCRPPRLPRPRPRPAPWPRP | 0.438
108 | RRIRTRPPRLPRPRPRPPQLPRP | 0.0198
109 | RRIRIRPPRLPRPRPRPVEQPRP | 0.107
110 | RRIRDRPPRLPRPRPRPFLYPRP | 1.81
111 | RRIRLRPPRLPRPRPRPNEAPRP | 0.278
112 | RRIRGRPPRLPRPRPRPAFYPRP | 0.178
113 | RRIRCRPPRLPRPRPRPKLKPRP | -0.16
114 | RRIRDRPPRLPRPRPRPMHAPRP | 0.121
115 | RRIRWRPPRLPRPRPRPAFQPRP | 0.62
116 | RRIRPRPPRLPRPRPRPRYFPRP | 0.0508
117 | RRIRRRPPRLPRPRPRPLGNPRP | -0.0268
118 | RRIRQRPPRLPRPRPRPFTAPRP | -0.183
119 | RRIRTRPPRLPRPRPRPRYVPRP | -0.426
120 | RRIRNRPPRLPRPRPRPEQMPRP | -0.0261
121 | RRIRKRPPRLPRPRPRPKTKPRP | 0.411
122 | RRIRWRPPRLPRPRPRPNMEPRP | 0.0936
123 | RRIRDRPPRLPRPRPRPQNAPRP | -0.111
124 | RRIRWRPPRLPRPRPRPMEDPRP | 0.383
125 | RRIRDRPPRLPRPRPRPTCIPRP | 0.0607

Row | Sequence | shrunken log2 fold change
126 | RRIRIRPPRLPRPRPRPGPKPRP | 0.00436
127 | RRIRERPPRLPRPRPRPIIQPRP | -0.386
128 | RRIRYRPPRLPRPRPRPYMTPRP | -0.271
129 | RRIRWRPPRLPRPRPRPLVWPRP | 0.426
130 | RRIRSRPPRLPRPRPRPCSKPRP | -0.234
131 | RRIRYRPPRLPRPRPRPFSCPRP | -0.0516
132 | RRIRCRPPRLPRPRPRPDHTPRP | -0.699
133 | RRIRMRPPRLPRPRPRPKIEPRP | 0.367
134 | RRIRWRPPRLPRPRPRPEEVPRP | -0.0142
135 | RRIRQRPPRLPRPRPRPNDMPRP | -0.296
136 | RRIRQRPPRLPRPRPRPRSDPRP | -0.208
137 | RRIRYRPPRLPRPRPRPIGMPRP | -0.265
138 | RRIRERPPRLPRPRPRPRQFPRP | -0.174
139 | RRIRNRPPRLPRPRPRPNSYPRP | -0.299
140 | RRIRDRPPRLPRPRPRPKHQPRP | 0.0157
141 | RRIRRRPPRLPRPRPRPIDDPRP | -0.128
142 | RRIRGRPPRLPRPRPRPEHIPRP | 0.19
143 | RRIRPRPPRLPRPRPRPWNEPRP | -0.138
144 | RRIRTRPPRLPRPRPRPMIWPRP | -0.0322
145 | RRIRIRPPRLPRPRPRPYGVPRP | -0.266
146 | RRIRWRPPRLPRPRPRPYNGPRP | -0.668
147 | RRIRIRPPRLPRPRPRPFCFPRP | -0.33
148 | RRIRERPPRLPRPRPRPDRVPRP | 0.00251
149 | RRIRIRPPRLPRPRPRPNHRPRP | 0.0615
150 | RRIRLRPPRLPRPRPRPGRYPRP | -0.124

— the supplement of paper PMC9112550, “Optimization of the antimicrobial peptide Bac7 by deep mutational scanning” (BMC Biology, 2022)
